# Laboratory results from patent publication US8198236B2, “Methods and compositions for the treatment of cancer” (Washington University, priority 2007, dated 2012).
# Columns and labels:
# LRP = molecular target: T1, LRP (Homo sapiens, UniProt Q07954); assay: 125I-Mesd binding to U87 cells and aortic smooth muscle cells expressing abundant LRP; settings: 125I-Mesd 5 nM, 4 hours at 4° C.
# T1 construct: U87 cells and SMC express abundant LRP; endogenous in cells; host or cells: U87 glioblastoma cells; human aortic smooth muscle cells
# Protocol: (§1) Cells (2×10^5) were seeded into 12-well dishes 1 day prior to assay. Ligand-binding buffer (minimal Eagle's medium containing 0.6% BSA with a different concentration of radioligand, 0.6 ml/well) was added to cell monolayers, in the absence or the presence of 500 nM unlabeled RAP or 500 nM unlabeled Mesd, followed with incubation for 0-4 hours at 4° C. Thereafter, overlying buffer containing unbound ligand was removed, and cell monolayers were washed and lysed in low-SDS lysis buffer (62.5 mM Tris-HCl pH 6.8, 0.2% SDS, 10% v/glycerol) and counted.
# To determine whether Mesd binds to other members of the LDLR family, ^125I-Mesd binding analysis was performed with four groups of cells expressing different members of the LDLR family (FIG. 2). In the first experiment, HEK293 cells were transiently transfected with cDNAs for the LDLR, LRP5, LRP6 or empty pcDNA3 vector. […]
# LRP6 = molecular target: T2, LRP6 (Homo sapiens, UniProt O75581); assay: 125I-RAP binding to LRP6-transduced HT1080 cells; settings: 500 nM unlabeled Mesd
# T2 construct: expressed in transfected cells; host or cells: human HT1080 cells, retroviral vector pLNCX2
# Protocol: as §1
# Receptor-associated protein (RAP) binds with high affinity to LRP, megalin, VLDLR and apoER2, and with a lower affinity to the LDLR (Bu, G., Int. Rev. Cytol. 209, 79-116. 2001). To determine whether RAP and Mesd bind to identical, overlapping, or different sites on the receptors, we performed binding and competition analysis of these two chaperones with HT1080 cells stably expressing LRP6.
# In FIG. 8A, binding of ^125I-RAP (5 nM) to LRP6-transduced HT1080 cells and the control cells was carried out for 4 hours at 4° C. in the absence (total) or presence of 500 nM RAP, or 500 nM Mesd. In FIG. 8B, binding of^125I-Mesd (5 nM) to LRP6-transduced HT1080 cells was carried out for 2 hours at 4° C. in the absence (total) or presence of various concentrations of RAP or 500 nM Mesd. […]
# Wnt signaling = assay: TCF/LEF-luc reporter assay in Wnt-3A-treated HEK293 cells; assay type: cell-based; settings: Wnt3A conditioned medium plus 500 nM, 16 hours at 37° C.
# Protocol: HEK293 cells were plated into six-well plates. For each well, 0.1 μg of the TOP-FLASHTCF luciferase construct (Upstate Biotechnology) was cotransfected with 0.8 μg Mesd-expressing vector, 0.8 μg Mesd mutant-expressing vector, or empty vector. A β-galactosidase-expressing vector (Promega, Madison, Wis.) was included as an internal control for transfection efficiency. After 48 hours, cells were lysed and both luciferase and β-galactosidase activities were determined with enzyme assay kits (Promega). The luciferase activity was determined with a luminometer using the Dual Luciferase Assay system (Promega). Luciferase activity was normalized to the activity of the β-galactosidase.
# In these experiments, transfected cells were treated without Wnt-3A or with Wnt-3A plus the indicated inhibitors (Mesd and/or Dkk1) for 16 hours at 37° C. Wnt signaling was measured by quantifying the luciferase activity using a live cell imaging system.
# T2 sequence (O75581 20-1613): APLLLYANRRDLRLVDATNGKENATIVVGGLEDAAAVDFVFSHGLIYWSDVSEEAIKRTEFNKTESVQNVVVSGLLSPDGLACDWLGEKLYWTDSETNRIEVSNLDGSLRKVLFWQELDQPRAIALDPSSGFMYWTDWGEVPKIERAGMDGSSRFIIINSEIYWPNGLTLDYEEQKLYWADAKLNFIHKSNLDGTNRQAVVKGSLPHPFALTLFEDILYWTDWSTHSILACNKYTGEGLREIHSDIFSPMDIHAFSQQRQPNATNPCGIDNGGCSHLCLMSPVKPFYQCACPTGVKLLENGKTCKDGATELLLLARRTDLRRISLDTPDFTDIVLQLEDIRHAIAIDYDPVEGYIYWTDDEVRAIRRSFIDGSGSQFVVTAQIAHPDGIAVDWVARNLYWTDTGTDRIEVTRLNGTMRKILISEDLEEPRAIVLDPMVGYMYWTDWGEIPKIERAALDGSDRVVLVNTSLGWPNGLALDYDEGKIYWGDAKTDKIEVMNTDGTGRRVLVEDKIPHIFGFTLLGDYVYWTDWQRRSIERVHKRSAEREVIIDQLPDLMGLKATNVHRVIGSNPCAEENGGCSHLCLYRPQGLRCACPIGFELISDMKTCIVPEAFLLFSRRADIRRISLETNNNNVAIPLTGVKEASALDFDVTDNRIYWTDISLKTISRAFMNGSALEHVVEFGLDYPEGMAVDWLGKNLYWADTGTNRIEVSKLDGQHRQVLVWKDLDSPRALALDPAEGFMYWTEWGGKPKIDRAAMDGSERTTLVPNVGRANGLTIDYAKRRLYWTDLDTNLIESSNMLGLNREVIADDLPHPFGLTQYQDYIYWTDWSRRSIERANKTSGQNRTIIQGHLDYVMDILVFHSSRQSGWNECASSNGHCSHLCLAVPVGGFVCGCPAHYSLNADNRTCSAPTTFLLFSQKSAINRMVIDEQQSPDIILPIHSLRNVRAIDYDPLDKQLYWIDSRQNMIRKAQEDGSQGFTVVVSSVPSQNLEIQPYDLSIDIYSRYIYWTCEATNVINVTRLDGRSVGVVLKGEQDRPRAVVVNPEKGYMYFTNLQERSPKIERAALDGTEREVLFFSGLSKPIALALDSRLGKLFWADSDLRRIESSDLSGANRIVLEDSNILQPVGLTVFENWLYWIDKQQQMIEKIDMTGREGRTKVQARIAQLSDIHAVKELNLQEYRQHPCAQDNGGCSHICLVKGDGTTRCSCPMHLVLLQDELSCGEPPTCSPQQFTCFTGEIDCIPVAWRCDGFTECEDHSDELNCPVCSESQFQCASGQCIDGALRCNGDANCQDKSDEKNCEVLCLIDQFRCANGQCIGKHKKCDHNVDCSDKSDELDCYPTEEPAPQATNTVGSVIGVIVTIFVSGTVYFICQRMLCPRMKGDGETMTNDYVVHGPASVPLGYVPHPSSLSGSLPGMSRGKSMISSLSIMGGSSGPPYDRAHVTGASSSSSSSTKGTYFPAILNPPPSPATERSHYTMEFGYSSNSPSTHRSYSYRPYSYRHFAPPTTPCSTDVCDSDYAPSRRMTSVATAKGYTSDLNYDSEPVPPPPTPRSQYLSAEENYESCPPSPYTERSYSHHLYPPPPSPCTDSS
molecule,measurement,setting,value
"Mesd: Recombinant full-length mouse Mesd expressed in E. coli, N-terminal polyhistidine tail, lacking the signal peptide (protein, left off: small tags and cut ends, Recombinant full-length mouse Mesd expressed in E. coli, N-terminal polyhistidine tail, lacking the signal peptide) ADTPGEATPPPRKKKDIRDYNDADMARLLEQWEKDDDIEEGDLPEHKRPSAPIDFSKLDPGKPESILKMTKKGKTLMMFVTVSGNPTEKETEEITSLWQGSLFNANYDVQRFIVGSDRAIFMLRDGSYAWEIKDFLVSQDRCAEVTLEGQMYPGKGGGSKEKNKTKPEKAKKKEGDRKPRASKEDNRAGSRREDL",Specific Mesd binding to U87 or SMC,LRP,minimal
same,Effect of excess unlabeled Mesd on the LRP6-dependent increase of 125I-RAP binding,LRP6,abolished
same,Inhibition of Wnt signaling (luciferase activity),Wnt signaling,moderately inhibit
